Laboratory results from patent US12662524B2.
Where two headings read alike, the source gives them in different places.

Legend:
[1] = molecular target: AP C3-convertase (C3bBb) (Homo sapiens (Human)) (UniProt P01024)
[2] = molecular target: AP C3-convertase (C3bBb) (Homo sapiens (Human)) (UniProt P01024); remark: listed apart in the source
[3] = substrate: CP C3-convertase (C4b2a) (Homo sapiens (Human)) (UniProt P0C0L4)

Row | AP-DAA [1] | AP-DAA [2] | CP-DAA [3] | Binder
1 | 12.5 fold | – | – | D2M2-4 (Tetra) (protein) CEVPTRLNSASLKQPYITQNYFPVGTVVEYECRPGYRRQPSLSPKLTCLQNLKWSTAVEFCKKKSCPNIRDPLNGQAVPANGTYEFGYQMHFICNEGYYLAGEEILYCELKGSVAIWSGKPPICEKVKCTPPPKIKNGKHTFSEVEVFEYLDAVTYSCDPAPGPDPFSLIGESTIYCGDNSVWSRAAPECKVVKCRFPVVENGKQISGFGKKFYYKATVMFECDKGFYLDGSDTIVCDSNSTWDPPVPKCLKVL
2 | – | 7.2 fold | – | D2M2-4 (Y101N) (protein) CEVPTRLNSASLKQPYITQNYFPVGTVVEYECRPGYRREPSLSPKLTCLQNLKWSTAVEFCKKKSCPNIRDPLNGQAVPANGTYEFGYQMHFICNEGYYLIGEEILYCELKGSVAIWSGKPPICEKVLCTPPPKIKNGKHTFSEVEVFEYLDAVTYSCDPAPGPDPFSLIGESTIYCGDNSVWSRAAPECKVVKCRFPVVENGKQISGFGKKFYYKATVMFECDKGFYLDGSDTIVCDSNSTWDPPVPKCLKVL
3 | – | 6.7 fold | 2 fold | D2M2-4 (I134A) (protein) CEVPTRLNSASLKQPYITQNYFPVGTVVEYECRPGYRREPSLSPKLTCLQNLKWSTAVEFCKKKSCPYIRDPLNGQAVPANGTYEFGYQMHFICNEGYYLAGEEILYCELKGSVAIWSGKPPICEKVLCTPPPKIKNGKHTFSEVEVFEYLDAVTYSCDPAPGPDPFSLIGESTIYCGDNSVWSRAAPECKVVKCRFPVVENGKQISGFGKKFYYKATVMFECDKGFYLDGSDTIVCDSNSTWDPPVPKCLKVL
4 | – | 3.4 fold | 2 fold | D2M2-4 (L161K) (protein) CEVPTRLNSASLKQPYITQNYFPVGTVVEYECRPGYRREPSLSPKLTCLQNLKWSTAVEFCKKKSCPYIRDPLNGQAVPANGTYEFGYQMHFICNEGYYLIGEEILYCELKGSVAIWSGKPPICEKVKCTPPPKIKNGKHTFSEVEVFEYLDAVTYSCDPAPGPDPFSLIGESTIYCGDNSVWSRAAPECKVVKCRFPVVENGKQISGFGKKFYYKATVMFECDKGFYLDGSDTIVCDSNSTWDPPVPKCLKVL
5 | – | 5.6 fold | – | D2M2-4 (E136Q) (D2) (protein) CEVPTRLNSASLKQPYITQNYFPVGTVVEYECRPGYRRQPSLSPKLTCLQNLKWSTAVEFCKKKSCPYIRDPLNGQAVPANGTYEFGYQMHFICNEGYYLIGEEILYCELKGSVAIWSGKPPICEKVLCTPPPKIKNGKHTFSEVEVFEYLDAVTYSCDPAPGPDPFSLIGESTIYCGDNSVWSRAAPECKVVKCRFPVVENGKQISGFGKKFYYKATVMFECDKGFYLDGSDTIVCDSNSTWDPPVPKCLKVL
